Tests used:
canine COX-3 = target: T1, canine COX-3 (Canis lupus familiaris, UniProt Q8HZR1); conditions: cited from earlier work
T1 sequence (Q8HZR1 1-633 isoform Q8HZR1-2): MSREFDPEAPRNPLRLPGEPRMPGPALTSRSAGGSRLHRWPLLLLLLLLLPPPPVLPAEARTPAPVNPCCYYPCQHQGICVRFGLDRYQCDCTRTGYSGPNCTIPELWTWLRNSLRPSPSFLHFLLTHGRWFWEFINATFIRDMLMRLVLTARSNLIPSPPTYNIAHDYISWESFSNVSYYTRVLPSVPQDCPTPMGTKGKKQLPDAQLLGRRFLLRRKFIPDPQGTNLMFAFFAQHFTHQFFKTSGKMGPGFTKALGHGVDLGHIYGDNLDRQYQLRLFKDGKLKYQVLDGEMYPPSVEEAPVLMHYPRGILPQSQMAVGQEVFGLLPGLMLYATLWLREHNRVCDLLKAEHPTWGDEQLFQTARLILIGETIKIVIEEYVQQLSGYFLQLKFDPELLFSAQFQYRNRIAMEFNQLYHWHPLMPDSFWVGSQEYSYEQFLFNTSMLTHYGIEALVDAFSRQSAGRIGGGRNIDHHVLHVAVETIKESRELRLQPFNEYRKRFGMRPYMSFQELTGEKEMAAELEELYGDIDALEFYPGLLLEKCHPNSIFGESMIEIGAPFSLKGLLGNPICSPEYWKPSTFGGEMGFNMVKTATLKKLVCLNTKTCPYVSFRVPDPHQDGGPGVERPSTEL

[1] = target: C-terminal RFP labeled ATG9
[2] = tested on: encephalomyocarditis virus (EMCV); experiment: EMCV replication in transfected CHO cells, plaque-forming assay; assay type: cell-based; conditions: compared to Empty vector
From the text: The rCOX constructs being related to ancient unicellular COX and evidence showing their involvement in the formation of innate immune responsive autophagic structures. EMCV is a positive strand RNA picornavirus implicated in human febrile illness. Also, the mTOR small molecule inhibitor rapamycin is shown to stimulate protein synthesis of EMCV proteins (Ref) and that autophagy specifically is shown to promote EMCV viral replication. We infected rCOX or/and cNuc transfected/co-transfected CHO cells with EMCV to determine their influence in viral replication. The media was collected and plaque forming assays were then performed and plaques were counted compared to Empty vector plaque counts.
CHO cells were seeded to the night before infection to complete confluence. Cells were washed twice with DMEM F/12 media before infection. Virus were placed on top of cells and allowed to absorb for 1 hour angling the cells every 10 minutes to ensure cells were fully covered. After adsorption the media was remove and cells washed twice with DMEM F/12 media. Agar at 2% in PBS was melted and mixed with warm DMEM/F12 with 20% FBS and then laid on top of the cells. The virus was allowed to replicate for 36 hours and then 5 mg/mL of MTT in PBS was added to visualize the cells. Plaques were counted using light microscope.

CC(=O)Nc1ccc(O)cc1 [acetaminophen]
effect on canine COX-3 (canine COX-3): specifically inhibited

FLAG tagged rc44 (translationally recoded rat COX-3 44 kD protein) (from UniProt Q63921) (enzyme)
co-localisation by confocal microscopy (Pearson coefficient) (Pearson coefficient) [1]: 0.928

FLAG tagged rc50 (translationally recoded rat COX-3 50 kD protein) (from UniProt Q63921) (enzyme)
co-localisation by confocal microscopy (Pearson coefficient) (Pearson coefficient) [1]: 0.954

FLAG tagged rc57 (translationally recoded rat COX-3 57 kD protein) (from UniProt Q63921) (enzyme)
co-localisation by confocal microscopy (Pearson coefficient) (Pearson coefficient) [1]: 0.973

B1: r57: translationally recoded 57 kD rat COX-3 protein, expressed by transfection in CHO cells (protein)
chain: MRLVITVRSNLIPSPPTYNTAHDYISWESFSNVSYYTRILPSVPKDCPTPMGTKGKKQLPDIHLLAQRLLLRREFIPGPQGTNVLFAFFAQHFTHQFFKTSGKMGPGFTKALGHGVDLGHIYGDSLERQYHLRLFKDGKLKYQVLDGEVYPPSVEQASVLMRYPPGVPPEKQMAVGQEVFGLLPGLMLFSTIWLREHNRVCDLLKEEHPTWDDEQLFQTTRLILIGETIKIIIEEYVQHLSGYFLQLKFDPELLFRAQFQYRNRIALEFNHLYHWHPLMPDSFQVGSQEYSYEQFLFNTSMLVDYGVEALVDAFSRQRAGRIGGGRNFDYHVLHVAEDVIKESREMRLQSFNEYRKRFGLKPYTSFQEFTGEKEMAAELEELYGDIDALEFYPGLMLEKCQPNSLFGESMIEMGAPFSLKGLLGNPICSPEYWKPSTFGGDVGFNIVNTASLKKLVCLNTKTCPYVSFRVPDYPGDDGSVFVRPSTEL
inhibition of virion production [2]: 40%

B2: r44: translationally recoded 44 kD rat COX-3 protein, expressed by transfection in CHO cells (protein)
chain: MGPGFTKALGHGVDLGHIYGDSLERQYHLRLFKDGKLKYQVLDGEVYPPSVEQASVLMRYPPGVPPEKQMAVGQEVFGLLPGLMLFSTIWLREHNRVCDLLKEEHPTWDDEQLFQTTRLILIGETIKIIIEEYVQHLSGYFLQLKFDPELLFRAQFQYRNRIALEFNHLYHWHPLMPDSFQVGSQEYSYEQFLFNTSMLVDYGVEALVDAFSRQRAGRIGGGRNFDYHVLHVAEDVIKESREMRLQSFNEYRKRFGLKPYTSFQEFTGEKEMAAELEELYGDIDALEFYPGLMLEKCQPNSLFGESMIEMGAPFSLKGLLGNPICSPEYWKPSTFGGDVGFNIVNTASLKKLVCLNTKTCPYVSFRVPDYPGDDGSVFVRPSTEL
number of EMCV virions [2]: doubled

From patent publication US20150184159A1, “USE OF COX-3 BINDING MOLECULES FOR MODULATING AUTOPHAGY” (priority 2013, published 2015)
